Source: IntAct's records for PubMed 25783203

B1: Vacuolar protein sorting-associated protein 33A (Homo sapiens), Q96AX1 (parent)
chain: MAAHLSYGRVNLNVLREAVRRELREFLDKCAGSKAIVWDEYLTGPFGLIAQYSLLKEHEVEKMFTLKGNRLPAADVKNIIFFVRPRLELMDIIAENVLSEDRRGPTRDFHILFVPRRSLLCEQRLKDLGVLGSFIHREEYSLDLIPFDGDLLSMESEGAFKECYLEGDQTSLYHAAKGLMTLQALYGTIPQIFGKGECARQVANMMIRMKREFTGSQNSIFPVFDNLLLLDRNVDLLTPLATQLTYEGLIDEIYGIQNSYVKLPPEKFAPKKQGDGGKDLPTEAKKLQLNSAEELYAEIRDKNFNAVGSVLSKKAKIISAAFEERHNAKTVGEIKQFVSQLPHMQAARGSLANHTSIAELIKDVTTSEDFFDKLTVEQEFMSGIDTDKVNNYIEDCIAQKHSLIKVLRLVCLQSVCNSGLKQKVLDYYKREILQTYGYEHILTLHNLEKAGLLKPQTGGRNNYPTIRKTLRLWMDDVNEQNPTDISYVYSGYAPLSVRLAQLLSRPGWRSIEEVLRILPGPHFEERQPLPTGLQKKRQPGENRVTLIFFLGGVTFAEIAALRFLSQLEDGGTEYVIATTKLMNGTSWIEALMEKPF
partner: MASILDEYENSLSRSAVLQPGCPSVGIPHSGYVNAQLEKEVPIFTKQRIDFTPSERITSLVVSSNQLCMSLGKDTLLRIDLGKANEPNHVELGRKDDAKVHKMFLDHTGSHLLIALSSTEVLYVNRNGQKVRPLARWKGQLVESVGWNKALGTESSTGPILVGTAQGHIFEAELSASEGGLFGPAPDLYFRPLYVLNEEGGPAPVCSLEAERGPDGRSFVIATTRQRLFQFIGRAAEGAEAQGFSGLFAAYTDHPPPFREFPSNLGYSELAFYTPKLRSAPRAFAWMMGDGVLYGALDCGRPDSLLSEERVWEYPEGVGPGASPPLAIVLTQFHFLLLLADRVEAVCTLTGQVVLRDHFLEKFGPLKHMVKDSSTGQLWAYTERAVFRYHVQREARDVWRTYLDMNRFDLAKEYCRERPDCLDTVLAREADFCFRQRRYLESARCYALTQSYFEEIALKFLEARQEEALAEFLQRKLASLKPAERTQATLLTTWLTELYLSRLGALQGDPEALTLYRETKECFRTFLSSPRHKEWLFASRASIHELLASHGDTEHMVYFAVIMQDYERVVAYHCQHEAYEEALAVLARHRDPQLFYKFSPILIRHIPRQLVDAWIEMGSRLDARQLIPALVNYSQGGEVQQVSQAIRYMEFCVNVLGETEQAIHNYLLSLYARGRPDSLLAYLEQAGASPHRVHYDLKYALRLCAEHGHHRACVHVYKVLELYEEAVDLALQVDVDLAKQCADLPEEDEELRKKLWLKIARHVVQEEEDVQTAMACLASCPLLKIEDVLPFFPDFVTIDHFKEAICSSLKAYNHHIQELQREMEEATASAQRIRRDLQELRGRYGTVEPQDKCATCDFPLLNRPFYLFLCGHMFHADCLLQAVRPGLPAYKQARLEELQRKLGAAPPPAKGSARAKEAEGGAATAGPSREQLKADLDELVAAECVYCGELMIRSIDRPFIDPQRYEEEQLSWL

Variants of: B1
Settings: with vps18_human VPS18, Q9P253

| Variant | effect of a mutation on the interaction |
| --- | --- |
| K429D;Y438D | disrupting interaction |
| Y438D;I441K | disrupting interaction |
| K429D;I441K | disrupting interaction |
